system: LIR2 gene; test: gRNA cleavage activity, T7E1 mismatch detection assay in K562 cells, LIR2; type: cell-based, human; details: CRISPR/Cas9, T7E1 mismatch assay, FIG. 4
Description: (§1) Two gRNA candidates were selected for each target gene and their cleavage efficacies in K562 cells determined. The sequences of the gRNA candidates are shown in Table 1 and the Protospacer Adjacent Motif (PAM) relates to the last 3 bases of the sequence. The flanking regions of the gRNA sequences on the LIR2 gene (SEQ ID NO: 1) and the CTLA4 gene (SEQ ID NO: 7) are shown in FIGS. 1 and 2, respectively.
(§2) K562 cells were transfected with the prepared gRNA constructs (FIG. 3) and subsequently harvested for PCR amplification. The presence of GFP expression was used to report successful incorporation of the gRNA construct into the K562 cells. This confirmed expression of the Cas9 gene and therefore the ability to knock out expression of the LIR2 and CTLA4 genes.
(§3) The cleavage activity of the gRNA constructs was determined using an in vitro mismatch detection assay. T7E1 endonuclease I recognises and cleaves non-perfectly matched DNA, allowing the parental LIR2 and CTLA4 genes to be compared to the mutated genes following CRISPR/Cas9 transfection and non-homologous end joining (NHEJ).

Row | Molecule | gRNA cleavage efficiency (LIR2 knockout)
1 | g18 gRNA: LIR2 g18 gRNA sequence CGAATCGCAGGTGGTCGCACAGG (expressed or natural sequence; listed as Homo sapiens) | 10%
2 | g9 gRNA: LIR2 g9 gRNA sequence GAGTCACAGGTGGCATTTGGCGG (expressed or natural sequence; listed as Homo sapiens) | 11%

system: CTLA4 gene; test: gRNA cleavage activity, T7E1 mismatch detection assay in K562 cells, CTLA4; type: cell-based, human; details: CRISPR/Cas9, T7E1 mismatch assay, FIG. 5
Description: as §1, §2, §3

Row | Molecule | gRNA cleavage efficiency (CTLA4 knockout)
3 | g15 gRNA: CTLA4 g15 gRNA sequence CCTTGTGCCGCTGAAATCCAAGG (expressed or natural sequence; listed as Homo sapiens) | 26%
4 | g7 gRNA: CTLA4 g7 gRNA sequence CACTCACCTTTGCAGAAGACAGG (expressed or natural sequence; listed as Homo sapiens) | 32%

target: DR5 (Homo sapiens, UniProt O14763); test: not given; details: in words; known from WO 2009/077857, Van der Sloot 2006, MacFarlane 2005, WO 01/00832; cited from earlier work

Row | Molecule | affinity for DR5
5 | TRAIL variant (D269H/E195R): TRAIL variant of WO 2009/077857, encoded by the wildtype TRAIL gene containing the D269H/E195R mutation (protein) MAMMEVQGGPSLGQTCVLIVIFTVLLQSLCVAVTYVYFTNELKQMQDKYSKSGIACFLKEDDSYWDPNDEESMNSPCWQVKWQLRQLVRKMILRTSEETISTVQEKQQNISPLVRERGPQRVAAHITGTRGRSNTLSSPNSKNEKALGRKINSWESSRSGHSFLSNLHLRNGELVIHEKGFYYIYSQTYFRFQERIKENTKNDKQMVQYIYKYTSYPDPILLMKSARNSCWSKDAEYGLYSIYQGGIFELKENDRIFVSVTNEHLIDMHHEASFFGAFLVG | significantly increases the affinity
6 | D269A: TRAIL DR5 variant, WO 01/00832 (protein, UniProt P50591 1-281, looked up, variant D269A) Tumor necrosis factor ligand …: MAMMEVQGGPSLGQTCVLIVIFTVLLQSLCVAVTYVYFTNELKQMQDKYSKSGIACFLKEDDSYWDPNDEESMNSPCWQVKWQLRQLVRKMILRTSEETISTVQEKQQNISPLVRERGPQRVAAHITGTRGRSNTLSSPNSKNEKALGRKINSWESSRSGHSFLSNLHLRNGELVIHEKGFYYIYSQTYFRFQEEIKENTKNDKQMVQYIYKYTSYPDPILLMKSARNSCWSKDAEYGLYSIYQGGIFELKENDRIFVSVTNEHLIDMAHEASFFGAFLVG | DR5 variants
7 | Y213W/S215D: TRAIL variant, MacFarlane 2005 (protein, UniProt P50591 1-281, looked up, variant Y213W S215D) Tumor necrosis factor ligand …: MAMMEVQGGPSLGQTCVLIVIFTVLLQSLCVAVTYVYFTNELKQMQDKYSKSGIACFLKEDDSYWDPNDEESMNSPCWQVKWQLRQLVRKMILRTSEETISTVQEKQQNISPLVRERGPQRVAAHITGTRGRSNTLSSPNSKNEKALGRKINSWESSRSGHSFLSNLHLRNGELVIHEKGFYYIYSQTYFRFQEEIKENTKNDKQMVQYIYKWTDYPDPILLMKSARNSCWSKDAEYGLYSIYQGGIFELKENDRIFVSVTNEHLIDMDHEASFFGAFLVG | increased affinity for DR5
8 | Y240A: TRAIL DR5 variant, WO 01/00832 (protein, UniProt P50591 1-281, looked up, variant Y240A) Tumor necrosis factor ligand …: MAMMEVQGGPSLGQTCVLIVIFTVLLQSLCVAVTYVYFTNELKQMQDKYSKSGIACFLKEDDSYWDPNDEESMNSPCWQVKWQLRQLVRKMILRTSEETISTVQEKQQNISPLVRERGPQRVAAHITGTRGRSNTLSSPNSKNEKALGRKINSWESSRSGHSFLSNLHLRNGELVIHEKGFYYIYSQTYFRFQEEIKENTKNDKQMVQYIYKYTSYPDPILLMKSARNSCWSKDAEYGLASIYQGGIFELKENDRIFVSVTNEHLIDMDHEASFFGAFLVG | DR5 variants

system: TRAIL decoy receptors (DcR1 and DcR2); test: not given; details: in words; known from WO 2009/077857, Leary 2016, WO 01/00832; cited from earlier work

Row | Molecule | affinity for TRAIL decoy receptors
9 | TRAIL variant (D269H/E195R): TRAIL variant of WO 2009/077857, encoded by the wildtype TRAIL gene containing the D269H/E195R mutation (protein) MAMMEVQGGPSLGQTCVLIVIFTVLLQSLCVAVTYVYFTNELKQMQDKYSKSGIACFLKEDDSYWDPNDEESMNSPCWQVKWQLRQLVRKMILRTSEETISTVQEKQQNISPLVRERGPQRVAAHITGTRGRSNTLSSPNSKNEKALGRKINSWESSRSGHSFLSNLHLRNGELVIHEKGFYYIYSQTYFRFQERIKENTKNDKQMVQYIYKYTSYPDPILLMKSARNSCWSKDAEYGLYSIYQGGIFELKENDRIFVSVTNEHLIDMHHEASFFGAFLVG | reducing the affinity
10 | T261L/H270D: TRAIL DcR variant, Leary 2016 (protein, UniProt P50591 1-281, looked up, variant T261L H270D) Tumor necrosis factor ligand …: MAMMEVQGGPSLGQTCVLIVIFTVLLQSLCVAVTYVYFTNELKQMQDKYSKSGIACFLKEDDSYWDPNDEESMNSPCWQVKWQLRQLVRKMILRTSEETISTVQEKQQNISPLVRERGPQRVAAHITGTRGRSNTLSSPNSKNEKALGRKINSWESSRSGHSFLSNLHLRNGELVIHEKGFYYIYSQTYFRFQEEIKENTKNDKQMVQYIYKYTSYPDPILLMKSARNSCWSKDAEYGLYSIYQGGIFELKENDRIFVSVLNEHLIDMDDEASFFGAFLVG | decreased affinity for TRAIL decoy receptors
11 | H270D: TRAIL DcR variant, Leary 2016 (protein, UniProt P50591 1-281, looked up, variant H270D) Tumor necrosis factor ligand …: MAMMEVQGGPSLGQTCVLIVIFTVLLQSLCVAVTYVYFTNELKQMQDKYSKSGIACFLKEDDSYWDPNDEESMNSPCWQVKWQLRQLVRKMILRTSEETISTVQEKQQNISPLVRERGPQRVAAHITGTRGRSNTLSSPNSKNEKALGRKINSWESSRSGHSFLSNLHLRNGELVIHEKGFYYIYSQTYFRFQEEIKENTKNDKQMVQYIYKYTSYPDPILLMKSARNSCWSKDAEYGLYSIYQGGIFELKENDRIFVSVTNEHLIDMDDEASFFGAFLVG | decreased affinity for TRAIL decoy receptors
12 | T261L/G160E: TRAIL DcR variant, Leary 2016 (protein, UniProt P50591 1-281, looked up, variant T261L G160E) Tumor necrosis factor ligand …: MAMMEVQGGPSLGQTCVLIVIFTVLLQSLCVAVTYVYFTNELKQMQDKYSKSGIACFLKEDDSYWDPNDEESMNSPCWQVKWQLRQLVRKMILRTSEETISTVQEKQQNISPLVRERGPQRVAAHITGTRGRSNTLSSPNSKNEKALGRKINSWESSRSEHSFLSNLHLRNGELVIHEKGFYYIYSQTYFRFQEEIKENTKNDKQMVQYIYKYTSYPDPILLMKSARNSCWSKDAEYGLYSIYQGGIFELKENDRIFVSVLNEHLIDMDHEASFFGAFLVG | decreased affinity for TRAIL decoy receptors
13 | T261L/G160E/H270D/T200H: TRAIL DcR variant, Leary 2016 (protein, UniProt P50591 1-281, looked up, variant T261L G160E H270D T200H) Tumor necrosis factor ligand …: MAMMEVQGGPSLGQTCVLIVIFTVLLQSLCVAVTYVYFTNELKQMQDKYSKSGIACFLKEDDSYWDPNDEESMNSPCWQVKWQLRQLVRKMILRTSEETISTVQEKQQNISPLVRERGPQRVAAHITGTRGRSNTLSSPNSKNEKALGRKINSWESSRSEHSFLSNLHLRNGELVIHEKGFYYIYSQTYFRFQEEIKENHKNDKQMVQYIYKYTSYPDPILLMKSARNSCWSKDAEYGLYSIYQGGIFELKENDRIFVSVLNEHLIDMDDEASFFGAFLVG | decreased affinity for TRAIL decoy receptors
14 | T261L/G160E/H270D: TRAIL DcR variant, Leary 2016 (protein, UniProt P50591 1-281, looked up, variant T261L G160E H270D) Tumor necrosis factor ligand …: MAMMEVQGGPSLGQTCVLIVIFTVLLQSLCVAVTYVYFTNELKQMQDKYSKSGIACFLKEDDSYWDPNDEESMNSPCWQVKWQLRQLVRKMILRTSEETISTVQEKQQNISPLVRERGPQRVAAHITGTRGRSNTLSSPNSKNEKALGRKINSWESSRSEHSFLSNLHLRNGELVIHEKGFYYIYSQTYFRFQEEIKENTKNDKQMVQYIYKYTSYPDPILLMKSARNSCWSKDAEYGLYSIYQGGIFELKENDRIFVSVLNEHLIDMDDEASFFGAFLVG | decreased affinity for TRAIL decoy receptors
15 | T261L: TRAIL DcR variant, Leary 2016 (protein, UniProt P50591 1-281, looked up, variant T261L) Tumor necrosis factor ligand …: MAMMEVQGGPSLGQTCVLIVIFTVLLQSLCVAVTYVYFTNELKQMQDKYSKSGIACFLKEDDSYWDPNDEESMNSPCWQVKWQLRQLVRKMILRTSEETISTVQEKQQNISPLVRERGPQRVAAHITGTRGRSNTLSSPNSKNEKALGRKINSWESSRSGHSFLSNLHLRNGELVIHEKGFYYIYSQTYFRFQEEIKENTKNDKQMVQYIYKYTSYPDPILLMKSARNSCWSKDAEYGLYSIYQGGIFELKENDRIFVSVLNEHLIDMDHEASFFGAFLVG | decreased affinity for TRAIL decoy receptors
16 | D218A: TRAIL DcR variant, WO 01/00832 (protein, UniProt P50591 1-281, looked up, variant D218A) Tumor necrosis factor ligand …: MAMMEVQGGPSLGQTCVLIVIFTVLLQSLCVAVTYVYFTNELKQMQDKYSKSGIACFLKEDDSYWDPNDEESMNSPCWQVKWQLRQLVRKMILRTSEETISTVQEKQQNISPLVRERGPQRVAAHITGTRGRSNTLSSPNSKNEKALGRKINSWESSRSGHSFLSNLHLRNGELVIHEKGFYYIYSQTYFRFQEEIKENTKNDKQMVQYIYKYTSYPAPILLMKSARNSCWSKDAEYGLYSIYQGGIFELKENDRIFVSVTNEHLIDMDHEASFFGAFLVG | DcR variants
17 | T200H: TRAIL DcR variant, Leary 2016 (protein, UniProt P50591 1-281, looked up, variant T200H) Tumor necrosis factor ligand …: MAMMEVQGGPSLGQTCVLIVIFTVLLQSLCVAVTYVYFTNELKQMQDKYSKSGIACFLKEDDSYWDPNDEESMNSPCWQVKWQLRQLVRKMILRTSEETISTVQEKQQNISPLVRERGPQRVAAHITGTRGRSNTLSSPNSKNEKALGRKINSWESSRSGHSFLSNLHLRNGELVIHEKGFYYIYSQTYFRFQEEIKENHKNDKQMVQYIYKYTSYPDPILLMKSARNSCWSKDAEYGLYSIYQGGIFELKENDRIFVSVTNEHLIDMDHEASFFGAFLVG | decreased affinity for TRAIL decoy receptors

From patent US10906951B2, “Modified natural killer cells and natural killer cell lines having increased cytotoxicity” (ONK THERAPEUTICS LIMITED, priority 2015, dated 2021)
